Consider seven molecules from article PMC10641233, “The C-terminal domain of the antiamyloid chaperone DNAJB6 binds to amyloid-β peptide fibrils and inhibits secondary nucleation” (The Journal of Biological Chemistry, 2023).

To fix the notation:
B1: C-terminal domain (CTD) of DNAJB6, WT sequence (residues 186–242 plus a starting Met) (domain or fragment)
chain: MGNFKSISTSTKMVNGRKITTKRIVENGQERVEVEEDGQLKSLTINGKEQLLRLDNK
notes: starting Met added before residue 186; numbers count on: full-length DNAJB6; also called WT CTD

The target of data set [1] is S100G-CTDβ1–4STA (ST/A-substituted variant of S100G-CTDβ1–4) (UniProt O75190). Description: cross-linking; 10 μM construct, BS3 amine-reactive crosslinker, 20 mM sodium phosphate, 0.2 mM EDTA (pH 8.0), SDS-PAGE with integration of band intensities and LC-MS/MS of excised bands; dimer to monomers; KD are lower bounds.
In data set [2] the target is Aβ42 fibrils (amyloid-β peptide Aβ(M1-42), fibrillar form).
The target is the same in data set [3]. Description: SPR; Aβ42 fibrils immobilised, construct injected (CTD at 2, 5 and 10 μM); 20 mM sodium phosphate, 0.2 mM EDTA, pH 8.0, 0.005% Tween-20.
Data set [4] has as its target S100G-CTDβ1–2STA (ST/A-substituted variant of S100G-CTDβ1–2) (UniProt O75190). Description: cross-linking; 10 μM construct, BS3 amine-reactive crosslinker, 20 mM sodium phosphate, 0.2 mM EDTA (pH 8.0), SDS-PAGE with integration of band intensities and LC-MS/MS of excised bands; dimer to monomers; KD are lower bounds.
Data set [5] deals with S100G-CTDβ1–4 (four β-strands of the DNAJB6 CTD, residues 187–231, grafted between the two EF-hands of human S100G) (UniProt O75190). Described as above.
Data set [6] addresses S100G-CTDβ1–2 (β-strands 1 and 2 of the DNAJB6 CTD, residues 187–212, grafted between the two EF-hands of human S100G) (UniProt O75190). The data set is described as above.
Data set [7] deals with the molecule itself. The data set is described as above.
Data set [8] concerns the molecule itself. Description: native MS; equimolar mixture of CTD and CTD STA ionised from 200 mM ammonium acetate, pH 6.8, source temperature 25 °C, gentle ionisation; also nonmixed samples (Fig. S3).
Data set [9] deals with the molecule itself. Nature of the data set: cross-linking; 10 μM construct, BS3 amine-reactive crosslinker, 20 mM sodium phosphate, 0.2 mM EDTA (pH 8.0), SDS-PAGE with integration of band intensities and LC-MS/MS of excised bands; tetramer to dimers; KD is a lower bound.
The target of data set [10] is B1. Description: native MS; equimolar mixture of CTD and CTD STA ionised from 200 mM ammonium acetate, pH 6.8, source temperature 25 °C, gentle ionisation; also nonmixed samples (Fig. S3). The following applies: both partners purified.

Bounds are passed on as bounds.

As to “S100G-CTDβ1–4STA (ST/A-substituted variant of S100G-CTDβ1–4) (from UniProt O75190-2 187-231)”, in data set [1], the Kd was above 1000 µM.
Consider “C-terminal domain (CTD) of DNAJB6, WT sequence (residues 186–242 plus a starting Met) (from UniProt O75190-2 186-241) (domain or fragment)”, for which the ThT fluorescence, reaction half time t1/2 of the aggregation of 3 μM Aβ42, CTD:Aβ42 M ratios from 0.05:1 to 1:1 in data set [2] was found to be 10 fold. In data set [3], this molecule displayed a Ka of 100000 M⁻¹.
With “S100G-CTDβ1–2STA (ST/A-substituted variant of S100G-CTDβ1–2) (from UniProt O75190-2 187-212)”, the Kd in data set [4] was above 1000 µM.
The molecule “S100G-CTDβ1–4 (four β-strands of the DNAJB6 CTD, residues 187–231, grafted between the two EF-hands of human S100G) (from UniProt O75190-2 187-231)” returned a Kd in data set [5] above 500 µM. Also, the Ka in [3] turned out to be 1e+07 M⁻¹.
Take “S100G-CTDβ1–2 (β-strands 1 and 2 of the DNAJB6 CTD, residues 187–212, grafted between the two EF-hands of human S100G) (from UniProt O75190-2 187-212)”: the Kd in [6] is above 60 µM. This molecule returned a Ka in [3] of 300000 M⁻¹.
On to B1, for which the Kd was at least 30 µM in [7] and at least 2 µM in data set [9]. Further, the “stoichiometry N” value is 2 in [8] and 4 in data set [9].

B2: CTD STA (CTD with S190A + S192A + T193A + S194A + T195A in β1) (domain or fragment)
chain: MGNFKAIAAAAKMVNGRKITTKRIVENGQERVEVEEDGQLKSLTINGKEQLLRLDNK
notes: starting Met added before residue 186; numbers count on: full-length DNAJB6; also called S/T-A-substituted variant
For the molecule B2, the Kd in data set [7] is at least 600 µM. Moreover, the “stoichiometry N” value in [8] came to 2. The binding result in data set [10] is “binds”.
